From paper PMC3814058 (Bioscience Reports, 2013)
No end group written: not given here.

B1: GFP–STIM1K+LC (GFP–STIM1K with a leucine and cysteine insertion after residue 666), oxidized dimer (domain or fragment, human, UniProt Q13586-1 662-685, looked up)
chain: GEETDLCSSPGRKKFPLKIFKKPLKK
modifications: not fully specified; inserted cysteine oxidized (84% dimerization)
notes: STIM1, human, residues 662–685 with Leu and Cys inserted after Asp666; The methods describe only the plasmid of the +LC–P675A–P682A form (pMS781); also called GFP–STIM1K dimer; oxidized GFP–STIM1K+LC; source: E. coli BL21 (DE3), purified, dialysed overnight against DTT-free HK buffer; not shown: GFP, N-terminal, kept
B2: GFP–STIM1K+LC–P675A–P682A, oxidized dimer (domain or fragment, human, UniProt Q13586-1 662-685, looked up)
chain: {GFP}-GEETDLCSSPGRKKFALKIFKKALKK
modifications: also: disulfide-linked dimer via inserted cysteine
notes: STIM1, human, residues 662–685 with Leu and Cys inserted after Asp666, P675A and P682A; also called pMS781; GFP-STIM1K dimer with both prolines mutated; source: E. coli BL21 (DE3), purified, dialysed overnight against DTT-free HK buffer; not shown: GFP, N-terminal, kept

Target: the molecule itself
Test: non-reducing SDS/PAGE; overnight dialysis at 4°C against non-reducing (DTT-free) HK buffer, non-reducing sample buffer, 65°C 5 min, Coomassie stain; disulphide-linked dimer

| Protein | stoichiometry N |
| --- | --- |
| B1 | 2 |
| B2 | 2 |
